Results reported in paper PMC9780223.

Target: purified recombinant PAPP-A free of STC2 (apo PAPP-A) (human) (UniProt Q13219)
Test: MST

| Substance | Kd |
| --- | --- |
| 4P1, peptide from the linker region of IGFBP4 (from UniProt P22692) | 1.73 µM |
| 4P2, peptide from the linker region of IGFBP4 (from UniProt P22692) | 27.5 µM |
| 5P1, peptide from the linker region of IGFBP5 (from UniProt P24593) | 4.43 µM |
| 4P3, peptide from the linker region of IGFBP4 (from UniProt P22692) | 162 µM |
| 5P2, peptide from the linker region of IGFBP5 (from UniProt P24593) | 17.3 µM |
| 5P3, peptide from the linker region of IGFBP5 (from UniProt P24593) | 38 µM |
